Assay results taken from patent US20210302413A1 (Johns Hopkins, published 2021).

Target: T1, endogenous human zinc transporter 8 (ZnT8) in EndoC-βH1 cells (human, UniProt Q8IWU4 1-369)
T1 construct: whole, on cells; Intracellular membrane protein, probed in fixed and permeabilised cells (in-cell ELISA), in SDS lysates (immunoblot) or in liposomes (SUVs) made from the cells; On blots two natural splice variants (A and B) are detected; also called endogenous ZnT8; SLC30A8 product
T1 sequence (looked up): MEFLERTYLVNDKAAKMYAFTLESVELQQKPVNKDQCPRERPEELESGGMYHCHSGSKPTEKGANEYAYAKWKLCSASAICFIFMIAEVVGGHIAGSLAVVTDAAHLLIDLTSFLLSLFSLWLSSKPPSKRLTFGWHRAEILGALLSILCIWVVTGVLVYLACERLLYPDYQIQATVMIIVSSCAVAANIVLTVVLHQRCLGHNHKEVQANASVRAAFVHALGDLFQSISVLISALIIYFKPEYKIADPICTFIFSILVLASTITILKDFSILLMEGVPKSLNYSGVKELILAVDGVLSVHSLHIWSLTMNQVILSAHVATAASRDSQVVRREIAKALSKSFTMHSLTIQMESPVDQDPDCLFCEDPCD
Test: in-cell ELISA, 95×10^3 EndoC-βH1 cells against the same number of rat INS-1E cells
Procedure: Next, mAb20 or a rabbit anti-HLA-I antibody (Proteintech, Cat. #15240-1-AP) was 1:600 or 1:60 diluted to Permeabilization/Wash Buffer I plus 0.5% BSA. Cells in each well were incubated with the diluted antibody solution for 2 hr at 37° C., washed once, and then exposed to a HRP-conjugated anti-mouse IgG (H+L) (Invitrogen, Cat. #62-6520) or anti-rabbit IgG (H+L) antibody (Invitrogen, Cat. #62-6120) in a 1:3000 dilution in Permeabilization/Wash Buffer I plus 0.1% BSA. After 1 hr incubation with the secondary antibody at RT, cells were washed three times to remove unbound antibodies before adding SuperSignal ELISA Femto Substrate (ThermoFisher Scientific, Cat. #37075). The HRP reaction was terminated at 5 min by transferring the reaction mixture to a 96-well opaque microplate for chemiluminescence quantification on a FlexStation-3 multi-mode microplate reader.
Assay validation. A ZnT8-specific ELISA was developed to track the endogenous ZnT8 level in EndoC-βH1 cells immobilized to a 96-well plate by paraformaldehyde fixation, followed by immunostaining and horseradish peroxidase (HRP) chemiluminescence. The non-specific background was estimated using rat insulinoma INS-1E and human HEK293 cells as negative controls. […] The signal-to-noise ratio at 95×10^3 cells was 3.9 (Z′ score=0.8) over a background detected from a same number of INS-1E cells (FIG. 1A). […]

signal-to-noise ratio: 3.9
B1: anti-ZnT8 monoclonal antibody mAb20 (antibody, mouse IgG1, kappa, V domains shown)
VH: QIQLVQSGPELKKPGETVKISCKASGYIFTNYPMHWVKQAPGKGLKWMGWINTYSGVPTHADDFKGRFAFSLETSANSAFLQINNLKNEDTATYFCTRSRITPTGGYAMDYWGQGTSVTVSS
VL: DVVMTQTPLSLPVSLGDQASISCRSSQSLVHSNGNTYLHWYLQKPGQSPNLLISKVSNRFSGVPERFSGSGSGTDFTLKISRVEAEDLGVYFCSQNTHVPWTFGGGTKLEIKR
notes: Mouse monoclonal antibody; Used free (1:600 of a 1 mg/ml stock), biotinylated, or crosslinked to Dynabeads through NHS-PEG5K-NHS; also called mouse mAb20; biotinylated mAb20
